Reference: the supplement of paper PMC10724198
± gives the standard deviation of the averaged measurements.

Tested on: Saccharomyces cerevisiae
Assay: protein stability index of tFT-peptide fusion (C-terminal peptide) (PSI (0-1 scale)); higher = more stable (slower turnover)
Details: genetic background: wild type; temperature: 30 C
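Note: PSI is a weighted mean of sequencing reads over stability bins, variants kept only with over 10 reads, mCherry proximal and sfGFP distal, peptide attached via GGGS linker.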

Row | Sequence | protein stability index
1 | VPPRPPLPPRPP | 0.625 ± 0.027
2 | PTMKLPLLSCAR | 0.602 ± 0.091
3 | VGGAVVWVGLVR | 0.55 ± 0.031
4 | NRVRVNSSYGRD | 0.71 ± 0.018
5 | VLHFIFLCRCPV | 0.497 ± 0.011
6 | KRLKKKKQSGGK | 0.71 ± 0.03
7 | CGAVDTETWWGG | 0.642 ± 0.024
8 | SGLSPPSRVCGY | 0.651 ± 0.068
9 | STLEKTFRVAKR | 0.694 ± 0.011
10 | ISYIGCCKIVLT | 0.553 ± 0.0086
11 | SKSLRAAQGGRT | 0.684 ± 0.016
12 | GGPSLTRCAAFG | 0.677 ± 0.063
13 | LSSARPMNLPPG | 0.67 ± 0.057
14 | WPHAPSLPRFSG | 0.69 ± 0.018
15 | ALFEDWRIGVFS | 0.71 ± 0.036
16 | HCSVSGLQLFMD | 0.699 ± 0.019
17 | TNILMHGHKRSC | 0.676 ± 0.13
18 | MGACGGRVGKFG | 0.662 ± 0.035
19 | GCQVAVGRAGGV | 0.659 ± 0.023
20 | GVGYCCVSGGLG | 0.722 ± 0.011
21 | NRRPLVQNGKLF | 0.67849 ± 0.00026
22 | PRSSPPPPPPPP | 0.681 ± 0.035
23 | FDMYACCQRGAV | 0.6639 ± 0.0027
24 | ESFLLSLNLLSY | 0.6155 ± 0.0037
25 | RKTEGGGEGLAV | 0.728 ± 0.035

Row | Sequence | protein stability index
26 | AMLLRCRQGDLI | 0.675 ± 0.032
27 | RGGVAGQPDAGR | 0.666 ± 0.014
28 | SRDIKTDCLRRV | 0.688 ± 0.078
29 | CISCVVDSPLSV | 0.712 ± 0.045
30 | ARPPTPLRKGAP | 0.673 ± 0.017
31 | PPPPVPPPPSPL | 0.6974 ± 0.0036
32 | GVRDGGTRGSEG | 0.7012 ± 0.0055
33 | SSGTLSPLSPVP | 0.655 ± 0.027
34 | FNGANEDCDLGV | 0.665 ± 0.12
35 | FQPTYCVHKQNK | 0.722 ± 0.024
36 | PKSRSVTTSIPG | 0.691 ± 0.042
37 | GCWGGLGAPGVS | 0.734 ± 0.028
38 | TTILCVARHIPH | 0.759 ± 0.089
39 | PVPPGYFLRSPP | 0.701 ± 0.032
40 | VFAGGCRLYCFR | 0.624 ± 0.063
41 | PVPKFKEPKIWW | 0.698 ± 0.021
42 | RLCSPVSVLLPP | 0.713 ± 0.047
43 | RSSTYGIMYSYR | 0.715 ± 0.035
44 | FITRATRESRIG | 0.694 ± 0.0073
45 | GLLAIVLYEYTG | 0.537 ± 0.0083
46 | LGRGGVAWGAWW | 0.836 ± 0.11
47 | LPPPAPPSSFPP | 0.661 ± 0.056
48 | AVLPSLWLWTKK | 0.682 ± 0.095
49 | RNTKGRIKKKKE | 0.728 ± 0.039
50 | NRQDASAPVCLL | 0.719 ± 0.049

Row | Sequence | protein stability index
51 | SWRKGAHRPVEV | 0.66 ± 0.036
52 | APLTYFKPPTPT | 0.666 ± 0.11
53 | STPRTPNFPATA | 0.706 ± 0.019
54 | ASPCTVAQDPRT | 0.621 ± 0.023
55 | PPRRPSPPSPHP | 0.67196 ± 0.00055
56 | PGPLISAVPLPF | 0.733 ± 0.064
57 | VLGLGVVACWAV | 0.569 ± 0.013
58 | GEILTLYLLPRL | 0.705 ± 0.052
59 | ADLAFAGGPYYG | 0.69 ± 0.067
60 | AGGLGSGGSRER | 0.6612 ± 0.0024
61 | PPTPHPSTPALP | 0.714 ± 0.075
62 | GRKSESEEEQRR | 0.677 ± 0.052
63 | PAPPPVRPRSLP | 0.627 ± 0.021
64 | GNELLINRVKPR | 0.698 ± 0.0085
65 | LPPPRPTRSPTH | 0.617 ± 0.034
66 | PPHPPRPSVSSS | 0.687 ± 0.0097
67 | PSPPLPLPLLSV | 0.633 ± 0.029
68 | WKGEREKQGKEG | 0.589 ± 0.084
69 | PSPPPPGLFPLP | 0.632 ± 0.044
70 | RGRLRFGNTTGI | 0.691 ± 0.035
71 | GGVVLTWVGENC | 0.704 ± 0.061
72 | VGFVYLTSAQVW | 0.527 ± 0.012
73 | PSPPASSPPLPL | 0.665 ± 0.02
74 | LPPPPRPLPRSL | 0.732 ± 0.018
75 | LDEFFIKTSANM | 0.652 ± 0.088

Row | Sequence | protein stability index
76 | LRASVFPVLDMC | 0.718 ± 0.075
77 | FLSLAAPQSGGA | 0.693 ± 0.027
78 | RVMGRHIGRPRE | 0.702 ± 0.015
79 | KEENKKKKKKRI | 0.755 ± 0.081
80 | FCFHPLTGKLSG | 0.6536 ± 0.0029
81 | ANELQEIYLGET | 0.6881 ± 0.006
82 | IRPWPLDPPPGR | 0.78 ± 0.08
83 | GRTDRPTDINSN | 0.677 ± 0.052
84 | LRDTAPEPGPAP | 0.6895 ± 0.0014
85 | PPATPTNPPVSP | 0.687 ± 0.027
86 | PFFFLWSLYFFL | 0.5096 ± 0.0038
87 | GVTLKSPTGRVF | 0.666 ± 0.097
88 | LLVLFRWSGIPG | 0.552 ± 0.034
89 | GAGLGGGRGRRW | 0.68617 ± 0.00065
90 | HSTENGGCTREY | 0.646 ± 0.039
91 | RPYLSPPPPTSP | 0.687 ± 0.093
92 | GGFSLTGSLCID | 0.687 ± 0.035
93 | PPPPPTFPPPRS | 0.817 ± 0.025
94 | RQLVNKKIKEKK | 0.7258 ± 0.0051
95 | PPPPPTPLPSTL | 0.727 ± 0.038
96 | KVRDTFRDFGLM | 0.673 ± 0.063
97 | RPKTLGNAREEG | 0.708 ± 0.039
98 | IGNFTTEVDGWG | 0.662 ± 0.036
99 | VLIEWKGSREKY | 0.824 ± 0.21
100 | LTGTVQPKLILP | 0.722 ± 0.051

Row | Sequence | protein stability index
101 | PPFDSAHPTPAP | 0.739 ± 0.019
102 | GIVDCTKVIGLP | 0.722 ± 0.028
103 | FRSGRLSPPAPS | 0.692 ± 0.0028
104 | AAAWWGPRNRGL | 0.6749 ± 0.0056
105 | GGRRRAWLGGRW | 0.746 ± 0.012
106 | SSPALPPQPPSH | 0.723 ± 0.0054
107 | TAPGYLGFSPFE | 0.713 ± 0.034
108 | SSEKKKEDGGLG | 0.687 ± 0.069
109 | PPPGPPSAPPPH | 0.706 ± 0.047
110 | SAGGCSVMAGNG | 0.709 ± 0.11
111 | EKSEKSRGNRYV | 0.72 ± 0.076
112 | PPASPPAPPTFG | 0.645 ± 0.021
113 | ESSPQPIPSRLA | 0.707 ± 0.016
114 | LNHQSSVHLNTP | 0.732 ± 0.034
115 | WCGWGGVACLLL | 0.681 ± 0.023
116 | PFTSPAGSFPPP | 0.762 ± 0.068
117 | DFCSVDLNLCIV | 0.61 ± 0.011
118 | RLPRRSVGRSTG | 0.673 ± 0.078
119 | RNKKKKNKNEKE | 0.705 ± 0.0073
120 | IFWGFSFRGGGC | 0.656 ± 0.029
121 | SEVPCENSRRVV | 0.667 ± 0.08
122 | SPTARRLSGCIS | 0.658 ± 0.086
123 | PPQPRSHPPHLS | 0.594 ± 0.086
124 | RWTRFISLTGTG | 0.637 ± 0.064
125 | SSPLPPPSPLPA | 0.678 ± 0.031

Row | Sequence | protein stability index
126 | QSVSSTGQARLS | 0.682 ± 0.033
127 | SGLGRPHLRCLD | 0.672 ± 0.042
128 | PALPPPGSPPPS | 0.616 ± 0.01
129 | HPLPPTGPPSPS | 0.77 ± 0.041
130 | WSGGAGGGGRLG | 0.645 ± 0.088
131 | PPRLVPPTPPSS | 0.65 ± 0.064
132 | MAEGRARLWGPS | 0.701 ± 0.024
133 | QGDPTCLKGINE | 0.669 ± 0.05
134 | VTLRLCGQSVVV | 0.585 ± 0.0085
135 | SSPSPPSSSSFP | 0.639 ± 0.028
136 | RGGRGAVRWLRG | 0.66791 ± 7.1e-07
137 | LPPFFPLLSPPF | 0.664 ± 0.031
138 | PLSPRHVSPPLL | 0.778 ± 0.045
139 | LAGLAVASVRRE | 0.683 ± 0.013
140 | RKGKKNKKPKKQ | 0.612 ± 0.02
141 | LRRTKWRTLQAP | 0.701 ± 0.048
142 | LLIHLKDFYCFV | 0.855 ± 0.019
143 | PGPDMSSVSSDY | 0.6 ± 0.11
144 | QIGKQAAATGTA | 0.708 ± 0.049
145 | SSFPAGGWLFFL | 0.682 ± 0.029
146 | GVWWRRVVFGRR | 0.696 ± 0.075
